Laboratory results reported in patent US20100311648A1 (AstraZeneca / MedImmune, published 2010).
Positions of bridges follow the written chain, without caps; N, C: chain ends. Non-standard residues stand in square brackets, D forms with d. dPhe(2-CF3) = N[C@H](Cc1ccccc1C(F)(F)F)C(=O)O; dPhe(4-CN) = N#Cc1ccc(C[C@@H](N)C(=O)O)cc1; dPhe(3-Cl) = N[C@H](Cc1cccc(Cl)c1)C(=O)O; dPhe(2-Me) = Cc1ccccc1C[C@@H](N)C(=O)O; dPhe(4-F) = N[C@H](Cc1ccc(F)cc1)C(=O)O; dPhe(2-F) = N[C@H](Cc1ccccc1F)C(=O)O; Orn = NCCC[C@H](N)C(=O)O; Dab = NCC[C@H](N)C(=O)O

B1: Ac-Arg-cyclo(Glu-Ser-D-Phe(4-F)-Arg-Trp-Orn)-NH2 (peptide)
peptide: Ac-RES[dPhe(4-F)]RW[Orn]-NH2
modifications: lactam 2-7
SMILES: CC(=O)N[C@@H](CCCNC(=N)N)C(=O)N[C@H]1CCC(=O)NCCC[C@@H](C(N)=O)NC(=O)[C@H](Cc2c[nH]c3ccccc23)NC(=O)[C@H](CCCNC(=N)N)NC(=O)[C@@H](Cc2ccc(F)cc2)NC(=O)[C@H](CO)NC1=O
notes: also called No. 65
B2: Ac-Arg-cyclo(Glu-Thr-D-Phe(4-CN)-Arg-Trp-Orn)-NH2 (peptide)
peptide: Ac-RET[dPhe(4-CN)]RW[Orn]-NH2
modifications: lactam 2-7
SMILES: CC(=O)N[C@@H](CCCNC(=N)N)C(=O)N[C@H]1CCC(=O)NCCC[C@@H](C(N)=O)NC(=O)[C@H](Cc2c[nH]c3ccccc23)NC(=O)[C@H](CCCNC(=N)N)NC(=O)[C@@H](Cc2ccc(C#N)cc2)NC(=O)[C@H]([C@@H](C)O)NC1=O
notes: also called No. 44

The binders below were run against T1, human melanocortin-4 receptor (human, UniProt P32245 1-332) (assay: cell-based or functional assay).
T1 sequence (P32245 whole entry): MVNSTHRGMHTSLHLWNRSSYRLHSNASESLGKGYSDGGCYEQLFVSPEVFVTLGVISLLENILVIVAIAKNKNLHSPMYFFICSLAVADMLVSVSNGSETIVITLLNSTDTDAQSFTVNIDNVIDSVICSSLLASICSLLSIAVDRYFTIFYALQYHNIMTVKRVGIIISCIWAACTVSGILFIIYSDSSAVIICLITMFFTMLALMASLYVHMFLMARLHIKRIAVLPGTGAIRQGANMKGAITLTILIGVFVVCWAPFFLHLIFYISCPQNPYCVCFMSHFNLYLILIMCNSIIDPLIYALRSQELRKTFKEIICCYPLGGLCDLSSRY

**Q.** With Ac-RE[Dab][dF]RW[Orn]-NH2 (lactam 2-7) [Ac-Arg-cyclo(Glu-Dab-D-Phe-Arg-Trp-Orn)-NH2] as the binder, how does the “EC50, cAMP, 0.1 ng/mL Doxycycline” value read?
**A.** 0.33 nM

The binders below were run against T2, melanocortin-1 receptor (mouse (B-16 melanoma cells); in some …, UniProt Q01727 1-315) (assay: [I125]-NDP-α-MSH competition, MC1-R membranes).
T2 construct: whole, on cells; membrane homogenates; also called MC1-R; mouse B16 MC1-R
T2 sequence (Q01727 whole entry): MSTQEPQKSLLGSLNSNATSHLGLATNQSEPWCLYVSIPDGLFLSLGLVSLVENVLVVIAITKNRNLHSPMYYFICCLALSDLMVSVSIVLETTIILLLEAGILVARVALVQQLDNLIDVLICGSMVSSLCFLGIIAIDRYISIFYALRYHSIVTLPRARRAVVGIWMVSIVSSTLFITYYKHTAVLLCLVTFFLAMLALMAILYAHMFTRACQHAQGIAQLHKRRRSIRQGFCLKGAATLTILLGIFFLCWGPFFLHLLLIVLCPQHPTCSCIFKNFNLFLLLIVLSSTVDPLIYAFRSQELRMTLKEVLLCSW

**Q.** For XDQXRWK (N-terminal Ac; D-Arg 1; D-Phe(2-Cl) 4; lactam Asp 2-Lys 7; C-terminal NH2, also called No. 79) [Ac-D-Arg-cyclo(Asp-Gln-D-Phe(2-Cl)-Arg-Trp-Lys)-NH2], which Ki is on record?
**A.** 395 nM

**Q.** Ac-REQ[dPhe(4-CN)]RW[Orn]-OH (lactam 2-7, also called No. 86) [Ac-Arg-cyclo(Glu-Gln-D-Phe(4-CN)-Arg-Trp-Orn)-OH] was tested. Which Ki did it give?
**A.** 3970 nM

**Q.** With Ac-R[Orn]Q[dPhe(2-CF3)]RWE-NH2 (lactam 2-7, also called No. 115) [Ac-Arg-cyclo(Orn-Gln-D-Phe(2-CF3)-Arg-Trp-Glu)-NH2] as the binder, how does the Ki read?
**A.** 235 nM

**Q.** For Ac-REQ[dPhe(3-Cl)]RW[Orn]-NH2 (lactam 2-7, also called No. 38) [Ac-Arg-cyclo(Glu-Gln-D-Phe(3-Cl)-Arg-Trp-Orn)-NH2], which Ki is on record?
**A.** 290 nM

**Q.** Which Ki does the source give for Ac-R[Orn]N[dPhe(2-Me)]RWE-NH2 (lactam 2-7, also called No. 74) [Ac-Arg-cyclo(Orn-Asn-D-Phe(2-Me)-Arg-Trp-Glu)-NH2] here?
**A.** 405 nM

**Q.** For Ac-REQ[dPhe(2-CF3)]RW[Orn]-NH2 (lactam 2-7, also called No. 114) [Ac-Arg-cyclo(Glu-Gln-D-Phe(2-CF3)-Arg-Trp-Orn)-NH2], which Ki is on record?
**A.** 93 nM

**Q.** Ac-R[Orn]N[dPhe(2-F)]RWE-NH2 (lactam 2-7, also called No. 71) [Ac-Arg-cyclo(Orn-Asn-D-Phe(2-F)-Arg-Trp-Glu)-NH2] was tested. Which Ki did it give?
**A.** 335 nM

**Q.** For XDQXRWK (N-terminal Ac; D-Arg 1; D-Phe(3-Cl) 4; lactam Asp 2-Lys 7; C-terminal NH2, also called No. 80) [Ac-D-Arg-cyclo(Asp-Gln-D-Phe(3-Cl)-Arg-Trp-Lys)-NH2], which Ki is on record?
**A.** 1750 nM

**Q.** For B1, which Ki is on record?
**A.** 43 nM

**Q.** How did the Ki turn out when B2 was run?
**A.** 1620 nM

Each binder was assayed against T1, human melanocortin-4 receptor (assay: [I125]-NDP-α-MSH competition, hMC4-R HEK-293 membranes).

**Q.** How did the Ki turn out when XDQXRWK (N-terminal Ac; D-Arg 1; D-Phe(2-Cl) 4; lactam Asp 2-Lys 7; C-terminal NH2, also called No. 79) [Ac-D-Arg-cyclo(Asp-Gln-D-Phe(2-Cl)-Arg-Trp-Lys)-NH2] was run?
**A.** 10 nM

**Q.** How did the Ki turn out when Ac-REQ[dPhe(4-CN)]RW[Orn]-OH (lactam 2-7, also called No. 86) [Ac-Arg-cyclo(Glu-Gln-D-Phe(4-CN)-Arg-Trp-Orn)-OH] was run?
**A.** 40 nM

**Q.** How did the Ki turn out when Ac-R[Orn]Q[dPhe(2-CF3)]RWE-NH2 (lactam 2-7, also called No. 115) [Ac-Arg-cyclo(Orn-Gln-D-Phe(2-CF3)-Arg-Trp-Glu)-NH2] was run?
**A.** 4 nM

**Q.** Ac-REQ[dPhe(3-Cl)]RW[Orn]-NH2 (lactam 2-7, also called No. 38) [Ac-Arg-cyclo(Glu-Gln-D-Phe(3-Cl)-Arg-Trp-Orn)-NH2] was tested. Which Ki did it give?
**A.** 3 nM

**Q.** Ac-R[Orn]N[dPhe(2-Me)]RWE-NH2 (lactam 2-7, also called No. 74) [Ac-Arg-cyclo(Orn-Asn-D-Phe(2-Me)-Arg-Trp-Glu)-NH2] was tested. Which Ki did it give?
**A.** 5 nM

**Q.** Ac-REQ[dPhe(2-CF3)]RW[Orn]-NH2 (lactam 2-7, also called No. 114) [Ac-Arg-cyclo(Glu-Gln-D-Phe(2-CF3)-Arg-Trp-Orn)-NH2] was tested. Which Ki did it give?
**A.** 8 nM

**Q.** Ac-R[Orn]N[dPhe(2-F)]RWE-NH2 (lactam 2-7, also called No. 71) [Ac-Arg-cyclo(Orn-Asn-D-Phe(2-F)-Arg-Trp-Glu)-NH2] was tested. Which Ki did it give?
**A.** 9 nM

**Q.** Which Ki does the source give for XDQXRWK (N-terminal Ac; D-Arg 1; D-Phe(3-Cl) 4; lactam Asp 2-Lys 7; C-terminal NH2, also called No. 80) [Ac-D-Arg-cyclo(Asp-Gln-D-Phe(3-Cl)-Arg-Trp-Lys)-NH2] here?
**A.** 7 nM

**Q.** With B1 as the binder, how does the Ki read?
**A.** 5 nM

**Q.** Which Ki does the source give for B2 here?
**A.** 18 nM

Molecular target: T1, human melanocortin-4 receptor
Assay: cell-based or functional assay
Remark: another data set of the same source

**Q.** For XDQXRWK (N-terminal Ac; D-Arg 1; D-Phe(2-Cl) 4; lactam Asp 2-Lys 7; C-terminal NH2, also called No. 79) [Ac-D-Arg-cyclo(Asp-Gln-D-Phe(2-Cl)-Arg-Trp-Lys)-NH2], which “EC50, cAMP, 0.1 ng/mL Doxycycline” value is on record?
**A.** 4 nM

**Q.** And the “EC50, cAMP, 10 ng/mL Doxycycline” value?
**A.** 0.2 nM

**Q.** And the “Intrinsic Activity, cAMP, 0.1 ng/mL Doxycycline” value?
**A.** 48%

**Q.** What about the “Intrinsic Activity, cAMP, 10 ng/mL Doxycycline” value of the same binder?
**A.** 85%

**Q.** What does the source list for Ac-REQ[dPhe(4-CN)]RW[Orn]-OH (lactam 2-7, also called No. 86) [Ac-Arg-cyclo(Glu-Gln-D-Phe(4-CN)-Arg-Trp-Orn)-OH]?
**A.** EC50, cAMP, 0.1 ng/mL Doxycycline: 9 nM; EC50, cAMP, 10 ng/mL Doxycycline: 0.483 nM; Intrinsic Activity, cAMP, 0.1 ng/mL Doxycycline: 36%; Intrinsic Activity, cAMP, 10 ng/mL Doxycycline: 96%

**Q.** Which results are given for Ac-R[Orn]Q[dPhe(2-CF3)]RWE-NH2 (lactam 2-7, also called No. 115) [Ac-Arg-cyclo(Orn-Gln-D-Phe(2-CF3)-Arg-Trp-Glu)-NH2]?
**A.** EC50, cAMP, 0.1 ng/mL Doxycycline: 0.8 nM; EC50, cAMP, 10 ng/mL Doxycycline: 0.17 nM; Intrinsic Activity, cAMP, 0.1 ng/mL Doxycycline: 54%; Intrinsic Activity, cAMP, 10 ng/mL Doxycycline: 108%

**Q.** Ac-REQ[dPhe(3-Cl)]RW[Orn]-NH2 (lactam 2-7, also called No. 38) [Ac-Arg-cyclo(Glu-Gln-D-Phe(3-Cl)-Arg-Trp-Orn)-NH2] was tested. Which “EC50, cAMP, 0.1 ng/mL Doxycycline” value did it give?
**A.** 2 nM

**Q.** And the “EC50, cAMP, 10 ng/mL Doxycycline” value?
**A.** 0.258 nM

**Q.** What about the “Intrinsic Activity, cAMP, 0.1 ng/mL Doxycycline” value of the same binder?
**A.** 31%

**Q.** What about the “Intrinsic Activity, cAMP, 10 ng/mL Doxycycline” value of the same binder?
**A.** 97%

**Q.** For Ac-R[Orn]N[dPhe(2-Me)]RWE-NH2 (lactam 2-7, also called No. 74) [Ac-Arg-cyclo(Orn-Asn-D-Phe(2-Me)-Arg-Trp-Glu)-NH2], which “EC50, cAMP, 0.1 ng/mL Doxycycline” value is on record?
**A.** 0.943 nM

**Q.** What about the “EC50, cAMP, 10 ng/mL Doxycycline” value of the same binder?
**A.** 0.11 nM

**Q.** And the “Intrinsic Activity, cAMP, 0.1 ng/mL Doxycycline” value?
**A.** 68%

**Q.** What about the “Intrinsic Activity, cAMP, 10 ng/mL Doxycycline” value of the same binder?
**A.** 100%

**Q.** Ac-REQ[dPhe(2-CF3)]RW[Orn]-NH2 (lactam 2-7, also called No. 114) [Ac-Arg-cyclo(Glu-Gln-D-Phe(2-CF3)-Arg-Trp-Orn)-NH2] was tested. Which “EC50, cAMP, 0.1 ng/mL Doxycycline” value did it give?
**A.** 1 nM

**Q.** What about the “EC50, cAMP, 10 ng/mL Doxycycline” value of the same binder?
**A.** 0.185 nM

**Q.** And the “Intrinsic Activity, cAMP, 0.1 ng/mL Doxycycline” value?
**A.** 73%

**Q.** What about the “Intrinsic Activity, cAMP, 10 ng/mL Doxycycline” value of the same binder?
**A.** 117%

**Q.** What does the source list for Ac-R[Orn]N[dPhe(2-F)]RWE-NH2 (lactam 2-7, also called No. 71) [Ac-Arg-cyclo(Orn-Asn-D-Phe(2-F)-Arg-Trp-Glu)-NH2]?
**A.** EC50, cAMP, 0.1 ng/mL Doxycycline: 1 nM; EC50, cAMP, 10 ng/mL Doxycycline: 0.085 nM

**Q.** XDQXRWK (N-terminal Ac; D-Arg 1; D-Phe(3-Cl) 4; lactam Asp 2-Lys 7; C-terminal NH2, also called No. 80) [Ac-D-Arg-cyclo(Asp-Gln-D-Phe(3-Cl)-Arg-Trp-Lys)-NH2] was tested. Which “EC50, cAMP, 0.1 ng/mL Doxycycline” value did it give?
**A.** 6 nM

**Q.** What about the “EC50, cAMP, 10 ng/mL Doxycycline” value of the same binder?
**A.** 0.65 nM

**Q.** And the “Intrinsic Activity, cAMP, 0.1 ng/mL Doxycycline” value?
**A.** 13%

**Q.** What about the “Intrinsic Activity, cAMP, 10 ng/mL Doxycycline” value of the same binder?
**A.** 86%

**Q.** What does the source list for B1?
**A.** EC50, cAMP, 0.1 ng/mL Doxycycline: 1 nM; EC50, cAMP, 10 ng/mL Doxycycline: 0.085 nM; Intrinsic Activity, cAMP, 0.1 ng/mL Doxycycline: 58%; Intrinsic Activity, cAMP, 10 ng/mL Doxycycline: 93%

**Q.** How did the “EC50, cAMP, 0.1 ng/mL Doxycycline” value turn out when B2 was run?
**A.** 11 nM

**Q.** And the “EC50, cAMP, 10 ng/mL Doxycycline” value?
**A.** 0.617 nM

**Q.** And the “Intrinsic Activity, cAMP, 0.1 ng/mL Doxycycline” value?
**A.** 22%

**Q.** What about the “Intrinsic Activity, cAMP, 10 ng/mL Doxycycline” value of the same binder?
**A.** 99%

These binders were tested against T1, human melanocortin-4 receptor (assay: Ki of Table 1; receptor not given, taken as hMC4-R).

**Q.** With Ac-RE[Dab][dF]RW[Orn]-NH2 (lactam 2-7) [Ac-Arg-cyclo(Glu-Dab-D-Phe-Arg-Trp-Orn)-NH2] as the binder, how does the Ki read?
**A.** 0.65 nM
